This passage reports Kd results from PMC8036949, “Investigation of the Interaction of Human Origin Recognition Complex Subunit 1 with G-Quadruplex DNAs of Human c-myc Promoter and Telomere Regions”.

The data set addresses T1, hORC1(413-511) (Homo sapiens, UniProt Q13415 413-511).
T1 sequence: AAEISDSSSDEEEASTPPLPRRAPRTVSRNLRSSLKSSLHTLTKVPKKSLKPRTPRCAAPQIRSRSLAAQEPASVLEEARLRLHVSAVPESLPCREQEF
The experiment in a line: fluorescence anisotropy; 100 mM KCl; FA: 20 mM HEPES-KOH pH 7.7, 100 mM KCl (or LiCl), 1 mM EDTA, 1 mM DTT, 25 C, 2 uM DNA, 1:1 fit; NMR: same buffer with 10% D2O, 10 uM DSS, 75 uM DNA, 25 C. The following applies: protein: recombinant, tags: N-terminal GST (pGEX-6P-1) removed with PreScission protease. (In general: Polarisation of emitted light reports the rotation of a fluorescent probe.)

The mark [1] stands for this setting: label: 5'-FAM, G4, multiple folds, 1 strand.

Usually Kd stands for the equilibrium constant for the complex coming apart. Consider TAGGGAGGGTAGGGAGGGT (structured_DNA) [mtPu19], for which the dissociation constant Kd (label: 5'-FAM, parallel G4, 1 strand) worked out at 446 ± 308 nM. For TGAGGGTGGGGAGGGTGGGGAA (structured_DNA) [wtPu22], under setting [1], the Kd came out at 166 nM. TGGGGAGGGTGGGGAGGGT (structured_DNA) [wtPu19]: under setting [1], the equilibrium dissociation constant (Kd) was 45.2 nM. Take TGAGGGTGGGTAGGGTGGGTAA (structured_DNA) [mtPu22]: the dissociation constant (Kd) (label: 5'-FAM (FA), label in NMR not clear, parallel G4, 1 strand) came out at 310 ± 39.2 nM.

B1: dsDNA (dsDNA)
DNA 1: AAATTTAAAAAAAAAAATAATT
DNA 2: AATTATTTTTTTTTTTAAATTT
In the case of B1, where the note is “label: 5'-FAM on strand 1, blunt”, the Kd turned out to be 1910 nM. As to TTGGGTTAGGGTTAGGGTTAGGGA (structured_DNA) [teloDNA], the Kd (label: 5'-FAM (FA), label in NMR not clear, (3+1) G4 in K+, 1 strand) was 227 ± 23.6 nM.
